Here are results for 45 variants from the Human Domainome abundance scans (Beltran et al. 2025).

± gives the uncertainty stated by the source.

The chains are these.
B1: LIM and senescent cell antigen-like-containing domain protein 2, residues 13 to 71; numbered along this chain, Q7Z4I7 (parent)
chain: AVCQRCQARFSPAERIVNSNGELYHEHCFVCAQCFRPFPEGLFYEFEGRKYCEHDFQML

Variants of B1 are the subject of this series. In words: abundance fitness (aPCA) (normalised: wild type 0, dead -1); higher = more abundant; growth selection in yeast, the domain comes from the species named. The following applies: Homo sapiens.
As for AACQRCQARFSPAERIVNSNGELYHEHCFVCAQCFRPFPEGLFYEFEGRKYCEHDFQML [V2A], the abundance fitness is -0.53 ± 0.13.
As to AHCQRCQARFSPAERIVNSNGELYHEHCFVCAQCFRPFPEGLFYEFEGRKYCEHDFQML [V2H], the abundance fitness is -0.238 ± 0.17.
Then ATCQRCQARFSPAERIVNSNGELYHEHCFVCAQCFRPFPEGLFYEFEGRKYCEHDFQML [V2T], with 0.011 ± 0.098.
As for AYCQRCQARFSPAERIVNSNGELYHEHCFVCAQCFRPFPEGLFYEFEGRKYCEHDFQML [V2Y], the abundance fitness is -0.097 ± 0.11.
Then AKCQRCQARFSPAERIVNSNGELYHEHCFVCAQCFRPFPEGLFYEFEGRKYCEHDFQML [V2K], with 0.018 ± 0.14; and ARCQRCQARFSPAERIVNSNGELYHEHCFVCAQCFRPFPEGLFYEFEGRKYCEHDFQML [V2R], with -0.002 ± 0.082; and AMCQRCQARFSPAERIVNSNGELYHEHCFVCAQCFRPFPEGLFYEFEGRKYCEHDFQML [V2M], with 0.093 ± 0.088.
Turning to ALCQRCQARFSPAERIVNSNGELYHEHCFVCAQCFRPFPEGLFYEFEGRKYCEHDFQML [V2L], the abundance fitness is -0.144 ± 0.062.
On to AGCQRCQARFSPAERIVNSNGELYHEHCFVCAQCFRPFPEGLFYEFEGRKYCEHDFQML [V2G], for which the abundance fitness was 0.129 ± 0.11.
On to AWCQRCQARFSPAERIVNSNGELYHEHCFVCAQCFRPFPEGLFYEFEGRKYCEHDFQML [V2W], for which the abundance fitness was -0.546 ± 0.24.
Turning to AFCQRCQARFSPAERIVNSNGELYHEHCFVCAQCFRPFPEGLFYEFEGRKYCEHDFQML [V2F], the abundance fitness was -0.324 ± 0.11.
Then ADCQRCQARFSPAERIVNSNGELYHEHCFVCAQCFRPFPEGLFYEFEGRKYCEHDFQML [V2D], with -0.128 ± 0.16; and ASCQRCQARFSPAERIVNSNGELYHEHCFVCAQCFRPFPEGLFYEFEGRKYCEHDFQML [V2S], with -0.445 ± 0.11.
The same measure for APCQRCQARFSPAERIVNSNGELYHEHCFVCAQCFRPFPEGLFYEFEGRKYCEHDFQML [V2P]: -0.274 ± 0.093.
Regarding ACCQRCQARFSPAERIVNSNGELYHEHCFVCAQCFRPFPEGLFYEFEGRKYCEHDFQML [V2C], the abundance fitness is -0.303 ± 0.14.
The same measure for AICQRCQARFSPAERIVNSNGELYHEHCFVCAQCFRPFPEGLFYEFEGRKYCEHDFQML [V2I]: 0.019 ± 0.1.
With AECQRCQARFSPAERIVNSNGELYHEHCFVCAQCFRPFPEGLFYEFEGRKYCEHDFQML [V2E], the abundance fitness was -0.081 ± 0.093.
Then ANCQRCQARFSPAERIVNSNGELYHEHCFVCAQCFRPFPEGLFYEFEGRKYCEHDFQML [V2N], with -0.139 ± 0.13; and AVKQRCQARFSPAERIVNSNGELYHEHCFVCAQCFRPFPEGLFYEFEGRKYCEHDFQML [C3K], with -1.08 ± 0.23.
For the variant AVMQRCQARFSPAERIVNSNGELYHEHCFVCAQCFRPFPEGLFYEFEGRKYCEHDFQML [C3M], the abundance fitness is -0.843 ± 0.14.
Consider AVQQRCQARFSPAERIVNSNGELYHEHCFVCAQCFRPFPEGLFYEFEGRKYCEHDFQML [C3Q], for which the abundance fitness was -1.33 ± 0.32.
Then AVEQRCQARFSPAERIVNSNGELYHEHCFVCAQCFRPFPEGLFYEFEGRKYCEHDFQML [C3E], with -0.468 ± 0.17; and AVNQRCQARFSPAERIVNSNGELYHEHCFVCAQCFRPFPEGLFYEFEGRKYCEHDFQML [C3N], with -0.687 ± 0.13.
Then AVRQRCQARFSPAERIVNSNGELYHEHCFVCAQCFRPFPEGLFYEFEGRKYCEHDFQML [C3R], with -1.21 ± 0.18; and AVGQRCQARFSPAERIVNSNGELYHEHCFVCAQCFRPFPEGLFYEFEGRKYCEHDFQML [C3G], with -0.499 ± 0.083; and AVLQRCQARFSPAERIVNSNGELYHEHCFVCAQCFRPFPEGLFYEFEGRKYCEHDFQML [C3L], with -0.705 ± 0.088.
Then AVIQRCQARFSPAERIVNSNGELYHEHCFVCAQCFRPFPEGLFYEFEGRKYCEHDFQML [C3I], with -1.25 ± 0.35; and AVHQRCQARFSPAERIVNSNGELYHEHCFVCAQCFRPFPEGLFYEFEGRKYCEHDFQML [C3H], with -1 ± 0.23; and AVSQRCQARFSPAERIVNSNGELYHEHCFVCAQCFRPFPEGLFYEFEGRKYCEHDFQML [C3S], with -0.832 ± 0.11.
As to AVTQRCQARFSPAERIVNSNGELYHEHCFVCAQCFRPFPEGLFYEFEGRKYCEHDFQML [C3T], the abundance fitness is -1.22 ± 0.26.
Then AVWQRCQARFSPAERIVNSNGELYHEHCFVCAQCFRPFPEGLFYEFEGRKYCEHDFQML [C3W], with -0.42 ± 0.13; and AVAQRCQARFSPAERIVNSNGELYHEHCFVCAQCFRPFPEGLFYEFEGRKYCEHDFQML [C3A], with -0.682 ± 0.12; and AVDQRCQARFSPAERIVNSNGELYHEHCFVCAQCFRPFPEGLFYEFEGRKYCEHDFQML [C3D], with -0.894 ± 0.24.
For AVYQRCQARFSPAERIVNSNGELYHEHCFVCAQCFRPFPEGLFYEFEGRKYCEHDFQML [C3Y], the abundance fitness was -0.887 ± 0.18.
For the variant AVFQRCQARFSPAERIVNSNGELYHEHCFVCAQCFRPFPEGLFYEFEGRKYCEHDFQML [C3F], the abundance fitness is -1.11 ± 0.25.
AVCQYCQARFSPAERIVNSNGELYHEHCFVCAQCFRPFPEGLFYEFEGRKYCEHDFQML [R5Y]: the abundance fitness was 0.29 ± 0.11.
Turning to AVCQMCQARFSPAERIVNSNGELYHEHCFVCAQCFRPFPEGLFYEFEGRKYCEHDFQML [R5M], the abundance fitness is 0.129 ± 0.077.
Take AVCQVCQARFSPAERIVNSNGELYHEHCFVCAQCFRPFPEGLFYEFEGRKYCEHDFQML [R5V]: the abundance fitness was 0.119 ± 0.061.
As for AVCQICQARFSPAERIVNSNGELYHEHCFVCAQCFRPFPEGLFYEFEGRKYCEHDFQML [R5I], the abundance fitness was determined as 0.078 ± 0.14.
On to AVCQECQARFSPAERIVNSNGELYHEHCFVCAQCFRPFPEGLFYEFEGRKYCEHDFQML [R5E], for which the abundance fitness was 0.037 ± 0.077.
Then AVCQPCQARFSPAERIVNSNGELYHEHCFVCAQCFRPFPEGLFYEFEGRKYCEHDFQML [R5P], with -0.625 ± 0.15; and AVCQKCQARFSPAERIVNSNGELYHEHCFVCAQCFRPFPEGLFYEFEGRKYCEHDFQML [R5K], with 0.052 ± 0.082; and AVCQHCQARFSPAERIVNSNGELYHEHCFVCAQCFRPFPEGLFYEFEGRKYCEHDFQML [R5H], with 0.069 ± 0.15.
Then AVCQDCQARFSPAERIVNSNGELYHEHCFVCAQCFRPFPEGLFYEFEGRKYCEHDFQML [R5D], with 0.104 ± 0.12; and AVCQACQARFSPAERIVNSNGELYHEHCFVCAQCFRPFPEGLFYEFEGRKYCEHDFQML [R5A], with 0.186 ± 0.079.
